IntAct's records for PubMed 24768165

B1: Protein wntless homolog (Homo sapiens), Q5T9L3 (parent)
chain: MAGAIIENMSTKKLCIVGGILLVFQIIAFLVGGLIAPGPTTAVSYMSVKCVDARKNHHKTKWFVPWGPNHCDKIRDIEEAIPREIEANDIVFSVHIPLPHMEMSPWFQFMLFILQLDIAFKLNNQIRENAEVSMDVSLAYRDDAFAEWTEMAHERVPRKLKCTFTSPKTPEHEGRYYECDVLPFMEIGSVAHKFYLLNIRLPVNEKKKINVGIGEIKDIRLVGIHQNGGFTKVWFAMKTFLTPSIFIIMVWYWRRITMMSRPPVLLEKVIFALGISMTFINIPVEWFSIGFDWTWMLLFGDIRQGIFYAMLLSFWIIFCGEHMMDQHERNHIAGYWKQVGPIAVGSFCLFIFDMCERGVQLTNPFYSIWTTDIGTELAMAFIIVAGICLCLYFLFLCFMVFQVFRNISGKQSSLPAMSKVRRLHYEGLIFRFKFLMLITLACAAMTVIFFIVSQVTEGHWKWGGVTVQVNSAFFTGIYGMWNLYVFALMFLYAPSHKNYGEDQSNGDLGVHSGEELQLTTTITHVDGPTEIYKLTRKEAQE

Variants of: B1
Details: with wnt3a_human WNT3A

Variant | effect of a mutation on the interaction
MAGAIIENMSTKKLCIVGGILLVFQIIAFLVGGLIAPGPTTAVSYMSVKCVDARKNHHKTKWFVPWGPNHCDKIRDIEEAIPREIEANDIVFSVHIPLPHMEMSPWFQFMLFILQLDIAFKLNNQIRENAEVSMDVSLAYRDDAFAEWTEMAHERVPRKLKCTFTSPKTPEHEGRYYECDVLPFMEIGSVAHKFYLLNIRLPVNEKKKINVGIGEIKDIRLVGIHQNGGFTKVWFAMKTFLTPSIFIIMVWYWRRITMMSRPPVLLEKVIFALGISMTFINIPVEWFSIGFDWTWMLLFGDIRQGIFYAMLLSFWIIFCGEHMMDQHERNHIAGYWKQVGPIAVGSFCLFIFDMCERGVQLTNPFYSIWTTDIGTELAMAFIIVAGICLCLYFLFLCFMVFQVFRNISGKQSSLPAMSKVRRLHYEGLIFRFKFLMLITLACAAMTVIFFIVSQVTEGHWKWGGVTVQVNSAFFTGIYGMWNLYVFALMFLYAPSHKNYGEDQSNGDLGVHSGEELQLTTTITHVDGPTEIYKLTRKEAAE [Q540A] | with no effect
MAGAIIENMSTKKLCIVGGILLVFQIIAFLVGGLIAPGPTTAVSYMSVKCVDARKNHHKTKWFVPWGPNHCDKIRDIEEAIPREIEANDIVFSVHIPLPHMEMSPWFQFMLFILQLDIAFKLNNQIRENAEVSMDVSLAYRDDAFAEWTEMAHERVPRKLKCTFTSPKTPEHEGRYYECDVLPFMEIGSVAHKFYLLNIRLPVNEKKKINVGIGEIKDIRLVGIHQNGGFTKVWFAMKTFLTPSIFIIMVWYWRRITMMSRPPVLLEKVIFALGISMTFINIPVEWFSIGFDWTWMLLFGDIRQGIFYAMLLSFWIIFCGEHMMDQHERNHIAGYWKQVGPIAVGSFCLFIFDMCERGVQLTNPFYSIWTTDIGTELAMAFIIVAGICLCLYFLFLCFMVFQVFRNISGKQSSLPAMSKVRRLHYEGLIFRFKFLMLITLACAAMTVIFFIVSQVTEGHWKWGGVTVQVNSAFFTGIYGMWNLYVFALMFLYAPSHKNYGEDQSNGDLGVHSGEELQLTTTITHVDGPTEIYKLTAKEAQE [R536A] | with no effect
MAGAIIENMSTKKLCIVGGILLVFQIIAFLVGGLIAPGPTTAVSYMSVKCVDARKNHHKTKWFVPWGPNHCDKIRDIEEAIPREIEANDIVFSVHIPLPHMEMSPWFQFMLFILQLDIAFKLNNQIRENAEVSMDVSLAYRDDAFAEWTEMAHERVPRKLKCTFTSPKTPEHEGRYYECDVLPFMEIGSVAHKFYLLNIRLPVNEKKKINVGIGEIKDIRLVGIHQNGGFTKVWFAMKTFLTPSIFIIMVWYWRRITMMSRPPVLLEKVIFALGISMTFINIPVEWFSIGFDWTWMLLFGDIRQGIFYAMLLSFWIIFCGEHMMDQHERNHIAGYWKQVGPIAVGSFCLFIFDMCERGVQLTNPFYSIWTTDIGTELAMAFIIVAGICLCLYFLFLCFMVFQVFRNISGKQSSLPAMSKVRRLHYEGLIFRFKFLMLITLACAAMTVIFFIVSQVTEGHWKWGGVTVQVNSAFFTGIYGMWNLYVFALMFLYAPSHKNYGEDQSNGDLGVHSGEELQLTTTITHVDGPTEIYKLTRKEAQA [E541A] | with no effect
MAGAIIENMSTKKLCIVGGILLVFQIIAFLVGGLIAPGPTTAVSYMSVKCVDARKNHHKTKWFVPWGPNHCDKIRDIEEAIPREIEANDIVFSVHIPLPHMEMSPWFQFMLFILQLDIAFKLNNQIRENAEVSMDVSLAYRDDAFAEWTEMAHERVPRKLKCTFTSPKTPEHEGRYYECDVLPFMEIGSVAHKFYLLNIRLPVNEKKKINVGIGEIKDIRLVGIHQNGGFTKVWFAMKTFLTPSIFIIMVWYWRRITMMSRPPVLLEKVIFALGISMTFINIPVEWFSIGFDWTWMLLFGDIRQGIFYAMLLSFWIIFCGEHMMDQHERNHIAGYWKQVGPIAVGSFCLFIFDMCERGVQLTNPFYSIWTTDIGTELAMAFIIVAGICLCLYFLFLCFMVFQVFRNISGKQSSLPAMSKVRRLHYEGLIFRFKFLMLITLACAAMTVIFFIVSQVTEGHWKWGGVTVQVNSAFFTGIYGMWNLYVFALMFLYAPSHKNYGEDQSNGDLGVHSGEELQLTTTITHVDGPTEIYKLTRAEAQE [K537A] | disrupting interaction strength
MAGAIIENMSTKKLCIVGGILLVFQIIAFLVGGLIAPGPTTAVSYMSVKCVDARKNHHKTKWFVPWGPNHCDKIRDIEEAIPREIEANDIVFSVHIPLPHMEMSPWFQFMLFILQLDIAFKLNNQIRENAEVSMDVSLAYRDDAFAEWTEMAHERVPRKLKCTFTSPKTPEHEGRYYECDVLPFMEIGSVAHKFYLLNIRLPVNEKKKINVGIGEIKDIRLVGIHQNGGFTKVWFAMKTFLTPSIFIIMVWYWRRITMMSRPPVLLEKVIFALGISMTFINIPVEWFSIGFDWTWMLLFGDIRQGIFYAMLLSFWIIFCGEHMMDQHERNHIAGYWKQVGPIAVGSFCLFIFDMCERGVQLTNPFYSIWTTDIGTELAMAFIIVAGICLCLYFLFLCFMVFQVFRNISGKQSSLPAMSKVRRLHYEGLIFRFKFLMLITLACAAMTVIFFIVSQVTEGHWKWGGVTVQVNSAFFTGIYGMWNLYVFALMFLYAPSHKNYGEDQSNGDLGVHSGEELQLTTTITHVDGPTEIYKLTRKAAQE [E538A] | with no effect

Variants of: B1
Details: with wnt3a_human WNT3A
Remark: another data set of the same source

Variant | effect of a mutation on the interaction
MAGAIIENMSTKKLCIVGGILLVFQIIAFLVGGLIAPGPTTAVSYMSVKCVDARKNHHKTKWFVPWGPNHCDKIRDIEEAIPREIEANDIVFSVHIPLPHMEMSPWFQFMLFILQLDIAFKLNNQIRENAEVSMDVSLAYRDDAFAEWTEMAHERVPRKLKCTFTSPKTPEHEGRYYECDVLPFMEIGSVAHKFYLLNIRLPVNEKKKINVGIGEIKDIRLVGIHQNGGFTKVWFAMKTFLTPSIFIIMVWYWRRITMMSRPPVLLEKVIFALGISMTFINIPVEWFSIGFDWTWMLLFGDIRQGIFYAMLLSFWIIFCGEHMMDQHERNHIAGYWKQVGPIAVGSFCLFIFDMCERGVQLTNPFYSIWTTDIGTELAMAFIIVAGICLCLYFLFLCFMVFQVFRNISGKQSSLPAMSKVRRLHAEGLIFRFKFLMLITLACAAMTVIFFIVSQVTEGHWKWGGVTVQVNSAFFTGIYGMWNLYVFALMFLYAPSHKNYGEDQSNGDLGVHSGEELQLTTTITHVDGPTEIYKLTRKEAQE [Y425A] | with no effect
